# Key:
# [1] = biological target: PD-L1-his (QPP09) (human) (UniProt Q9NZQ7); assay: ELISA, PD-L1 captured by coated anti-HIS antibody
# [2] = biological target: human PD-L1 on HCC827 cells (human) (UniProt Q9NZQ7); assay: FACS on HCC827 cells
# Chain of human PD-L1 on HCC827 cells (human) (Q9NZQ7 19-290): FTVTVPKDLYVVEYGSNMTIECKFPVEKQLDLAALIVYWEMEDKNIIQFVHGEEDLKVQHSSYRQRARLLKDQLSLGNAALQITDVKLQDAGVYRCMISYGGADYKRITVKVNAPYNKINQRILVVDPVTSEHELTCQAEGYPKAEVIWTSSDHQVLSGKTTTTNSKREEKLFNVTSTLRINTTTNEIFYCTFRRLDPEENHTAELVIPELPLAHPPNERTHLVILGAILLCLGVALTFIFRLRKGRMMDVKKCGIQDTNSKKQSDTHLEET
# Chain of PD-L1-his (QPP09) (human) (Q9NZQ7 19-239 limits assumed): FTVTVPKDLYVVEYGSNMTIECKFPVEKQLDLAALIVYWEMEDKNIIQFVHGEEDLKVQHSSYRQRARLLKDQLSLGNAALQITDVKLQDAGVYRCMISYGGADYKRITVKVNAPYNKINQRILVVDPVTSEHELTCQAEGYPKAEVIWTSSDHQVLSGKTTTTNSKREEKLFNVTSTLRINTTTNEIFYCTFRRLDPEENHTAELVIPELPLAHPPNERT
substance,measurement,setting,value
Tecentriq (antibody),EC50,[1],0.0919 nM
same,EC50,[2],0.109 nM

# From patent US20250326840A1
